Tests used:
Assay in all cases: cell-based or functional assay
[1] = molecular target: T1, RSV protein F of strain A2 (RSV A2 (ATCC number VR-1540), UniProt P03420 26-574)
[2] = molecular target: T2, RSV protein F of strain Long (RSV Long (ATCC number VR-26), UniProt P12568 26-574)
[3] = molecular target: T3, RSV protein F of strain B Wash/18537 (RSV B Wash/18537 (ATCC number VR-1580), UniProt P13843 26-574)
[4] = molecular target: T1, RSV protein F of strain A2; remark: listed apart in the source
[5] = molecular target: T2, RSV protein F of strain Long; remark: listed apart in the source
[6] = molecular target: T3, RSV protein F of strain B Wash/18537; remark: listed apart in the source

T3 sequence (P13843 26-574): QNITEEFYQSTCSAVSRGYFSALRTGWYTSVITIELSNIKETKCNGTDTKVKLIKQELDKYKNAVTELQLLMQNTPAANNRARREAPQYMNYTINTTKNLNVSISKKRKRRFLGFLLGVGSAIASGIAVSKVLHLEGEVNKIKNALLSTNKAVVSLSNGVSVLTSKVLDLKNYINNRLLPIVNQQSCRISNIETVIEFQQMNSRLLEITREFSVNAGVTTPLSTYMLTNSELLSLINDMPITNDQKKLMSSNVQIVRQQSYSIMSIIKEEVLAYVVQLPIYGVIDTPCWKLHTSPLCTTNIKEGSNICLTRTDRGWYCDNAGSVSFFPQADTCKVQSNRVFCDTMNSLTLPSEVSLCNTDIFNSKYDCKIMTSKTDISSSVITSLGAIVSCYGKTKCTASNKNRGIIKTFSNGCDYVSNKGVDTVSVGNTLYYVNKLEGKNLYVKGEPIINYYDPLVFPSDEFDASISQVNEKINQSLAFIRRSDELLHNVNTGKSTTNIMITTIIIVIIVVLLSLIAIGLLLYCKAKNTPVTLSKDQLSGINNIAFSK
T1 sequence (P03420 26-574): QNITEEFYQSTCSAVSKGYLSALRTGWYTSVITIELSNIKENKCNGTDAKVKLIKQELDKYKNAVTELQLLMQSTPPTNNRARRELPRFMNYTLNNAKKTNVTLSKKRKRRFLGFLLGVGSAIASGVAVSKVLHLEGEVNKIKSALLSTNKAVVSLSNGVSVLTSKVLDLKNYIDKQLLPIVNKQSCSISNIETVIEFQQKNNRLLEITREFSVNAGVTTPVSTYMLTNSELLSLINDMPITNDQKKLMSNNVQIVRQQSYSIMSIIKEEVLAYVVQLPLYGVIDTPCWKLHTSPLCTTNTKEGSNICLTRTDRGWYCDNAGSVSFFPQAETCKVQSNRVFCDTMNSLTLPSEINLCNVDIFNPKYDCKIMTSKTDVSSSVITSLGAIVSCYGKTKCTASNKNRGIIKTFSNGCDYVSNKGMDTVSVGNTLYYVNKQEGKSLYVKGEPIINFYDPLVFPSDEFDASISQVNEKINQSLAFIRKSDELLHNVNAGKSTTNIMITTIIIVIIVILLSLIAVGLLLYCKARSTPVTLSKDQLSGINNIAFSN
T2 sequence (P12568 26-574): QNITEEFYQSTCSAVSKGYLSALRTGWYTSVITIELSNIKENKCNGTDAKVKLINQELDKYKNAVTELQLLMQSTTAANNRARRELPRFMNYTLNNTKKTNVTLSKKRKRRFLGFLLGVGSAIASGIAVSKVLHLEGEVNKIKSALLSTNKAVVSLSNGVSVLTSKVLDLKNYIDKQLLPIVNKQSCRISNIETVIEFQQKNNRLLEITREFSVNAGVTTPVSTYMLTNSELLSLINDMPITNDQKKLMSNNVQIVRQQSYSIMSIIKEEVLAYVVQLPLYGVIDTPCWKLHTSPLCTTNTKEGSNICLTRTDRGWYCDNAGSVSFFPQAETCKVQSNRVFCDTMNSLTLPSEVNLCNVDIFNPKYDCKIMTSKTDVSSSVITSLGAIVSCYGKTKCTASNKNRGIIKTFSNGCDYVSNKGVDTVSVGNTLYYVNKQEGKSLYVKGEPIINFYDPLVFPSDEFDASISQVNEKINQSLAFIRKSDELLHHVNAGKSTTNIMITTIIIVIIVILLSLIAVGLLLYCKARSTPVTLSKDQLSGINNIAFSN

B1: Palivizumab (Synagis) (antibody, V domains shown)
VH: QVTLRESGPALVKPTQTLTLTCTFSGFSLSTSGMSVGWIRQPPGKALEWLADIWWDDKKDYNPSLKSRLTISKDTSKNQVVLKVTNMDPADTATYYCARSMITNWYFDVWGAGTTVTVSS
VL: DIQMTQSPSTLSASVGDRVTITCKCQLSVGYMHWYQQKPGKAPKLLIYDTSKLASGVPSRFSGSGSGTEFTLTISSLQPDDFATYYCFQGSGYPFTFGGGTKLEIK
PRNT EC50 with complement, RSV A2 [1]: 0.15 µg/mL
PRNT EC50 with complement, RSV Long [2]: 0.14 µg/mL
PRNT EC50 with complement, RSV 18537 [3]: 0.2 µg/mL
EC50 value (µg/ml), PRNT (plaque reduction neutralization) against RSV strain A2 [4]: 0.15 µg/mL
EC50 value (µg/ml), PRNT (plaque reduction neutralization) against RSV strain Long [5]: 0.14 µg/mL
EC50 value (µg/ml), PRNT (plaque reduction neutralization) against RSV strain 18537 [6]: 0.2 µg/mL

— patent US20090137003A1 (SYMPHOGEN A S, published 2009)
